The values that follow are results of earlier work, collected in publication PMC13051815.

In data set [1] the target is Bim BH3 peptide 86-111 (Homo sapiens) (UniProt O43521). The data set can be described thus: ITC.
The target is the same in data set [2]. The data set can be described thus: fluorescence polarization. A general note: Polarisation of emitted light reports the rotation of a fluorescent probe.

Chain of UniProt O43521 (O43521 86-111): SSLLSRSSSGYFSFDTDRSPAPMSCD

In general, Kd refers to the free concentration of one partner at which half of the binding sites on the other are occupied at equilibrium, for simple one-to-one binding. As for Hsp70 NBD (from UniProt P0DMV8), the Kd was 400 nM in data set [1] and > 30000 nM in data set [2].
